This assay deals with LarB1-His (Rhodococcus jostii). As to the kind of experiment: BLI. For orientation: In BLI a coated tip is dipped into the sample, and binding shifts an interference pattern.

This note sets out measurements from PMC5084080.

As for “LarA-MBP (from UniProt H7C8I3 1-46) (natural protein)”, the Kd (commonly the equilibrium constant for the complex coming apart) came out at 440 nM.
